Experimental data published in patent US20190359687A1.

What was measured:
[1] = target: Rhesus monkey glycophorin A on Rhesus monkey red blood cells (Rhesus monkey); assay: FACS, RBC Rh02
[2] = target: Rhesus monkey glycophorin A on Rhesus monkey red blood cells (Rhesus monkey); assay: FACS, RBC Rh01
[3] = target: Rhesus monkey glycophorin A on Rhesus monkey red blood cells (Rhesus monkey); assay: FACS, RBC Rh03
[4] = target: Cynomolgus monkey glycophorin A on Cynomolgus monkey red blood cells (Cynomolgus monkey); assay: FACS, RBC Cy02
[5] = target: Cynomolgus monkey glycophorin A on Cynomolgus monkey red blood cells (Cynomolgus monkey); assay: FACS, RBC Cy01
[6] = target: endogenous Cynomolgus monkey FVIII in whole blood (Cynomolgus monkey); assay: cell-based or functional assay
Chain of endogenous Cynomolgus monkey FVIII in whole blood (Cynomolgus monkey) (chain, as listed by the source): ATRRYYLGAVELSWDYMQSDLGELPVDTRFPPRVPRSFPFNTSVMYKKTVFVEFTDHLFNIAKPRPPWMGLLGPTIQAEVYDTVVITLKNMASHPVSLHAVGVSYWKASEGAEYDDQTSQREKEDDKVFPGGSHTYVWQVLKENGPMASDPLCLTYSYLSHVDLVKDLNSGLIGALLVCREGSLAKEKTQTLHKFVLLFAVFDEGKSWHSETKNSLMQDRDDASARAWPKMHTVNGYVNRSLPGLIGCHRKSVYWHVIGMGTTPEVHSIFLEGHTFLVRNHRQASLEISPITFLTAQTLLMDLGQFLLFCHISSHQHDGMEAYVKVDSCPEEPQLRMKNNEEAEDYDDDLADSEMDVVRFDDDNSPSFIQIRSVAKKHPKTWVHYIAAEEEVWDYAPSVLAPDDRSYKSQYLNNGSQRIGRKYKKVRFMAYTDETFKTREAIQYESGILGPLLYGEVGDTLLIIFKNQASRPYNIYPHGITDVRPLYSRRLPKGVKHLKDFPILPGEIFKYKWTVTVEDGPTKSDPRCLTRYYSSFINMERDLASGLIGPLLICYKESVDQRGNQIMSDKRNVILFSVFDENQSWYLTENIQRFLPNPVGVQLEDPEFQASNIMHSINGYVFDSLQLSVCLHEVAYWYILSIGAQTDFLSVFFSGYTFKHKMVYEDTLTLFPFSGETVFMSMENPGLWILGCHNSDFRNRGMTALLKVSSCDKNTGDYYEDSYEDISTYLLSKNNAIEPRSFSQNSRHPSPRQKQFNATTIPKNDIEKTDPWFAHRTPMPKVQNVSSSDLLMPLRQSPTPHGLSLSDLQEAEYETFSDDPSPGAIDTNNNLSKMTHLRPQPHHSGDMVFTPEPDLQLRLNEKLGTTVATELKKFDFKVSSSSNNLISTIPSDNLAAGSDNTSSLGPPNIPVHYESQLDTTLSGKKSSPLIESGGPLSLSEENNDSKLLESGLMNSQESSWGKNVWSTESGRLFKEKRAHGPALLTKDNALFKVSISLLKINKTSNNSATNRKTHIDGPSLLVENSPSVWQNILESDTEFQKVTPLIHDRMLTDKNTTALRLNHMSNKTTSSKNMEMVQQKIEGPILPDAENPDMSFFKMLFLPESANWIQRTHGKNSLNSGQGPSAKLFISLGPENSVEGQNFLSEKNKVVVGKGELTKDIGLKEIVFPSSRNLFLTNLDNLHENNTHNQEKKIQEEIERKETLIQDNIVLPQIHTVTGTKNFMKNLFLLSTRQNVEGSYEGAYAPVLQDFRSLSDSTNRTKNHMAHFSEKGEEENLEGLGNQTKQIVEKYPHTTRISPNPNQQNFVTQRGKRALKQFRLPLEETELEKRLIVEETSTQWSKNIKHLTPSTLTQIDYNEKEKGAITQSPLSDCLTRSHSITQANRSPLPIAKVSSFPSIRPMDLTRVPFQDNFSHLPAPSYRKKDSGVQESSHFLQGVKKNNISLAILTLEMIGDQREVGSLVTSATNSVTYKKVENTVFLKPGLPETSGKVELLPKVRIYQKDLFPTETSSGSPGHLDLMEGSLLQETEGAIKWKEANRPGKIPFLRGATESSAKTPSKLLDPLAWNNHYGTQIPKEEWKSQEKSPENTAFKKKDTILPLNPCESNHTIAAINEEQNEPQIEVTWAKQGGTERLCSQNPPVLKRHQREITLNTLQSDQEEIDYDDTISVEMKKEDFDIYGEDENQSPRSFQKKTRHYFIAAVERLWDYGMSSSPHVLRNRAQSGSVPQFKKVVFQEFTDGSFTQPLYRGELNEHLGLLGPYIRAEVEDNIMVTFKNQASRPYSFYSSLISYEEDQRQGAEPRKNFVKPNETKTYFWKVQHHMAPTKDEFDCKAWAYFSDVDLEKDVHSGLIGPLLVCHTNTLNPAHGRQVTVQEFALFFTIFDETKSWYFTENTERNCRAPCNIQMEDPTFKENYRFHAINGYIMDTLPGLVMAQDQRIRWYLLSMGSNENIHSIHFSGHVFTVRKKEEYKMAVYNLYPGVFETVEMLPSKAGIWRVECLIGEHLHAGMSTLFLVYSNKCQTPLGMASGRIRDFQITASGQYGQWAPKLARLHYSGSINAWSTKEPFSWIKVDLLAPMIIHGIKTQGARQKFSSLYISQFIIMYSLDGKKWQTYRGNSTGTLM

Chain of Rhesus monkey glycophorin A on Rhesus monkey red blood cells (Rhesus monkey) (chain, as listed by the source, form in doubt): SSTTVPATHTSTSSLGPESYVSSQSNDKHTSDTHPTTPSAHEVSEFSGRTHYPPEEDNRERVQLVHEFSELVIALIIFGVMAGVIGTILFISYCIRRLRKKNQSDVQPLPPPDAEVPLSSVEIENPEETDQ

| fluorescence intensity [1] | fluorescence intensity [2] | fluorescence intensity [3] | fluorescence intensity [4] | fluorescence intensity [5] | Hemochron aPTT clotting time, Cyno whole blood [6] | Substance |
| --- | --- | --- | --- | --- | --- | --- |
| 2 | 2 | 2 | 3 | 2 |  | Hu igG isotype (antibody) |
|  |  |  |  |  | 180 s | anti-FVIII neutralizing monoclonal antibody BO2C11 |
